Results from patent US6759212B1, “Cell cycle-regulating proteins” (Chugai Seiyaku Kabushiki Kaisha, priority 1997, dated 2004).
Where “and” joins values, the source holds several entries; their conditions need not be identical. Equal entries are not always repeated.

Key:
[1] = tested on: human diploid fibroblast KD cells; assay: Abnormal cytokinesis: cells having two or more nuclei after transient transfection; type: cell-based; conditions: 72 hours after transfection
From the text: (§1) To confirm the generality of this observation, AIM-1 (WT) and AIM-1 (K-R) plasmids were transiently expressed in NRK-49F cells and human diploid fibroblast KD cells and the results were compared with those obtained in a control transfected with vector alone. These constructs were transfected into cell-s with a reporter construct […] to prepare β-galactosidase-expressing plasmids for use as a positive internal control for transfection (Table 1).
(§2) (2) Abnormal Cytokinesis in Cells Expressing AIM-1 (K-R) Plasmid FLAG-AIM-1 (WT), FLAG-AIM-1 (K-R) or a control plasmid pEF/hygI was cotransfected with a reporter construct RSV-β-galactosidase at a ratio of 10:1 into NRK-49F cells and human diploid fibroblast KD cells (a kind gift of late Dr. Takeo Kakunaga) by Lipofectin method. After 24 hours, 1×10^3 cells were seeded per 60 mm dish, and 72 hours after transfection, cells were fixed in 1.25% glutaraldehyde/PBS and stained by a method described in literature (Shu et al., J.C.S. 108:2955-62, 1995) to observe expression of β-galactosidase. MvlLu cells were also tested under the conditions described in (1) B above.
(§3) 1. The figures in the table mean the percentage of cells having two or more nuclei to β-galactosidase positive cells for NRK-49F cells and KD cells or the percentage of cells having two or more nuclei to the total number of cells for MvlLu cells. […]

Mv1Lu cells [2] = assay: FACS analysis of DNA content (propidium iodide); type: cell-based, mink; conditions: 72 hour-induction
Experimental: (§4) MvlLu cells carrying vector alone, wild-type FLAG-AIM-1 (WT) or FLAG-AIM-1 (K-R) were grown in the presence or absence of doxycycline (tetracycline analog) for 24 hours and then subjected to western blot with anti-FLAG antibody (FIG. 4A). […] In addition, the size of these cells was much larger than normal cells (FIGS. 4Bf and 5D). In these abnormal cells, however, spindle. functions including chromosome disjunction and late anaphase spindle elongation as well as nuclear division appeared unaffected (data not shown). This was further confirmed by flow cytometry (FACS) (FIG. 4C). […] Namely, apocytes appeared because karyokinesis advances but cytokinesis is inhibited.
Cell samples were harvested and fixed with ethanol, stained with propidium iodide for FACS analysis.

Mv1Lu cells [3] = assay: Abnormal cytokinesis: cells having two or more nuclei, tetracycline-inducible expression, Giemsa staining; type: cell-based, mink; conditions: for percentage of cells having two or more nuclei to the total number of cells: Mv1Lu, 72 hours
Experimental: as §4
Then, asynchronous cells transfected with vector alone (a, d), FLAG-AIM-1 (WT) (b, e) or FLAG-AIM-1 (K-R) (c, f) were grown with (a-c) or without (d-f) DOX for 72 hours and stained with Giemsa's solution. Results are shown in FIG. 4B, wherein upper panels are called as a, b and c from left to right, and lower panels are called as d, e and f from left to right.
as §2
1. The figures in the table mean the percentage of cells having two or more nuclei to β-galactosidase positive cells for NRK-49F cells and KD cells or the percentage of cells having two or more nuclei to the total number of cells for MvlLu cells. For each cell line, 160 or more cells were tested.

NRK-49F cells = assay: Abnormal cytokinesis: cells having two or more nuclei after transient transfection; type: cell-based, rat; conditions: 72 hours after transfection
From the text: as §1, §2, §3

Mv1Lu cells [4] = assay: Growth for 2 weeks with or without DOX, Giemsa staining; type: cell-based, mink; conditions: grown 2 weeks with or without doxycycline
Experimental: The nuclei of these AIM-1 (K-R)-expressing cells divided 3 to 4 times during 4 to 5 days, resulting in more than 10 nuclei per cell (FIG. 5D).
Mv1Lu cells transfected with FLAG-AIM-1 (WT) or FLAG-AIM-1 (K-R) were grown with or without DOX for 2 weeks and stained with Giemsa's solution.

B1: AIM-1 (K-R): kinase-inactive (dominant negative) FLAG-AIM-1 in which lysine at the 109-position was replaced by arginine, expressed from plasmid (protein, UniProt O55099 1-343, looked up, variant K109R)
Aurora kinase B: MAQKENVYPWPYGSKTSQSGLNTLPQRVLRKEPAVTPAQALMNRSNSQSTAVPGQKLTENKGATALQGSQSRQPFTIDNFEIGRPLGKGKFGNVYLAREKKSRFIVALRILFKSQIEKEGVEHQLRREIEIQAHLKHPNILQLYNYFYDQQRIYLILEYAPRGELYKELQKSGTFDEQRTATIMEELSDALMYCHKKKVIHRDIKPENLLLGLQGELKIADFGWSVHAPSLRRKTMCGTLDYLPPEMIEGRMHNEMVDLWCIGVLCYELMVGNPPFESPSHSETYRRIVKVDLKFPSSMPLGAKDLISKLLKHNPSQRLPLEQVSAHPWVRANSRRVLPPSAL
modifications: N-terminal FLAG tag
**Q.** For B1, which “percentage of cells having two or more nuclei to β-galactosidase positive cells” value [1] is on record?
**A.** The value was 38% and 38.4%.

**Q.** And the “cell population with 4N or 8N DNA / cell cycle pattern (FACS)” value (Mv1Lu cells [2])?
**A.** The value was “dramatically increased”.

**Q.** What about the nuclei per cell (Mv1Lu cells [3]; Mv1Lu cells expressing construct, during 4 to 5 days) of the same molecule?
**A.** The nuclei per cell was “more than 10”.

**Q.** And the “percentage of cells having two or more nuclei to the total number of cells” value (“percentage … to the total number of cells” below) (Mv1Lu cells [3]; DOX(+) (not induced))?
**A.** The value was 7.7%.

**Q.** What about the “percentage … to the total number of cells” value (Mv1Lu cells [3]; DOX(−) (induced)) of the same molecule?
**A.** Its value is 68.4%.

**Q.** What about the “percentage … to the total number of cells” value (Mv1Lu cells [3]; DOX(−) (induced), listed as FLAG-AIM-1 (K-R)) of the same molecule?
**A.** Its value is “about 68%”.

**Q.** And the “percentage of cells having two or more nuclei to β-galactosidase positive cells” value (NRK-49F cells)?
**A.** Its value is 62%.

**Q.** What about the “effect on growth potency (mitotic inhibition)” value (Mv1Lu cells [4]) of the same molecule?
**A.** The value was “miotic inhibition was observed”.
